# Article PMC2132707
# Where “and” joins values, the source holds several entries; their conditions need not be identical. Equal entries are not always repeated.
# Biological target: heavy chains (Iα and Iβ) of inner arm dynein I1 (Chlamydomonas reinhardtii (endogenous in axonemes)) (UniProt Q9SMH3)
# Experiment: quantitative densitometry of Coomassie blue-stained gels
Substance,most likely relative stoichiometry (relative to the HCs) (relative to the HCs),relative stoichiometry (relative to the HCs) (relative to the HCs)
"Chlamydomonas 8,000-M r LC (natural protein)",4 to 5.5,4 to 5.5
IC140 of inner arm dynein I1 (natural protein),0.5 to 1,0.71 and 0.53 and 0.63
IC97 of inner arm dynein I1 (natural protein),0.5 to 1,0.95 and 0.67 and 0.56
